Results from PMC7867188, “Biosensor-Based Directed Evolution of Methanol Dehydrogenase from Lysinibacillus xylanilyticus” (International Journal of Molecular Sciences, 2021).

B1: Lxmdh (methanol dehydrogenase, Mdh, NAD-dependent) (Lysinibacillus xylanilyticus) (protein)
chain: MSDVLKQFVMPKTNLFGPGAIQEVGTRLNDLEVKKTLIVTDEGLHKLGLSEQIANIITAAGIDVAIFPKAEPNPTDQNIEDGIAVYHAENCDSIVSLGGGSAHDAAKGIGLIASNGGRIHDYEGVDKSQNPLVPLIAINTTAGTASEMTRFTIITDTARKVKMAIVDKHVTPLLSINDPELMIGLPPALTAATGLDALTHAIESFVSTNATPITDACAEKVLQLVPEYLPRAYANGADLEAREQMVYAQFLAGMAFNNASLGYVHAIAHQLGGFYNLPHGVCNAILLPHVCRFNLTARTERFARIAELLGENVEALSKRDAAEKAIVAIENLSRDLNIPSGFRELGAKDEDIEILAKNAMLDVCAATNPRKATLEEIKQIITNAMGPVAKKEESLEAVALS
notes: His-tagged (pET28a; cloning primers indicate N-terminal His/thrombin tag and native stop), expressed in E. coli, Ni-NTA purified; cloning primers encode N-terminus MSDVLK and C-terminus KAVALS
B2: Lxmdh (methanol dehydrogenase, Mdh, NAD-dependent) (Lysinibacillus xylanilyticus; K46E) (protein)
chain: MSDVLKQFVMPKTNLFGPGAIQEVGTRLNDLEVKKTLIVTDEGLHELGLSEQIANIITAAGIDVAIFPKAEPNPTDQNIEDGIAVYHAENCDSIVSLGGGSAHDAAKGIGLIASNGGRIHDYEGVDKSQNPLVPLIAINTTAGTASEMTRFTIITDTARKVKMAIVDKHVTPLLSINDPELMIGLPPALTAATGLDALTHAIESFVSTNATPITDACAEKVLQLVPEYLPRAYANGADLEAREQMVYAQFLAGMAFNNASLGYVHAIAHQLGGFYNLPHGVCNAILLPHVCRFNLTARTERFARIAELLGENVEALSKRDAAEKAIVAIENLSRDLNIPSGFRELGAKDEDIEILAKNAMLDVCAATNPRKATLEEIKQIITNAMGPVAKKEESLEAVALS
notes: as for B1
B3: Lxmdh (methanol dehydrogenase, Mdh, NAD-dependent) (Lysinibacillus xylanilyticus; E396V) (protein)
chain: MSDVLKQFVMPKTNLFGPGAIQEVGTRLNDLEVKKTLIVTDEGLHKLGLSEQIANIITAAGIDVAIFPKAEPNPTDQNIEDGIAVYHAENCDSIVSLGGGSAHDAAKGIGLIASNGGRIHDYEGVDKSQNPLVPLIAINTTAGTASEMTRFTIITDTARKVKMAIVDKHVTPLLSINDPELMIGLPPALTAATGLDALTHAIESFVSTNATPITDACAEKVLQLVPEYLPRAYANGADLEAREQMVYAQFLAGMAFNNASLGYVHAIAHQLGGFYNLPHGVCNAILLPHVCRFNLTARTERFARIAELLGENVEALSKRDAAEKAIVAIENLSRDLNIPSGFRELGAKDEDIEILAKNAMLDVCAATNPRKATLEEIKQIITNAMGPVAKKEESLVAVALS
notes: as for B1
B4: Lxmdh (methanol dehydrogenase, Mdh, NAD-dependent) (Lysinibacillus xylanilyticus; E396V/K318N) (protein)
chain: MSDVLKQFVMPKTNLFGPGAIQEVGTRLNDLEVKKTLIVTDEGLHKLGLSEQIANIITAAGIDVAIFPKAEPNPTDQNIEDGIAVYHAENCDSIVSLGGGSAHDAAKGIGLIASNGGRIHDYEGVDKSQNPLVPLIAINTTAGTASEMTRFTIITDTARKVKMAIVDKHVTPLLSINDPELMIGLPPALTAATGLDALTHAIESFVSTNATPITDACAEKVLQLVPEYLPRAYANGADLEAREQMVYAQFLAGMAFNNASLGYVHAIAHQLGGFYNLPHGVCNAILLPHVCRFNLTARTERFARIAELLGENVEALSNRDAAEKAIVAIENLSRDLNIPSGFRELGAKDEDIEILAKNAMLDVCAATNPRKATLEEIKQIITNAMGPVAKKEESLVAVALS
notes: as for B1
B5: Lxmdh (methanol dehydrogenase, Mdh, NAD-dependent) (Lysinibacillus xylanilyticus; K318N) (protein)
chain: MSDVLKQFVMPKTNLFGPGAIQEVGTRLNDLEVKKTLIVTDEGLHKLGLSEQIANIITAAGIDVAIFPKAEPNPTDQNIEDGIAVYHAENCDSIVSLGGGSAHDAAKGIGLIASNGGRIHDYEGVDKSQNPLVPLIAINTTAGTASEMTRFTIITDTARKVKMAIVDKHVTPLLSINDPELMIGLPPALTAATGLDALTHAIESFVSTNATPITDACAEKVLQLVPEYLPRAYANGADLEAREQMVYAQFLAGMAFNNASLGYVHAIAHQLGGFYNLPHGVCNAILLPHVCRFNLTARTERFARIAELLGENVEALSNRDAAEKAIVAIENLSRDLNIPSGFRELGAKDEDIEILAKNAMLDVCAATNPRKATLEEIKQIITNAMGPVAKKEESLEAVALS
notes: as for B1

substrate: CO; assay: HPLC of formaldehyde after O-benzylhydroxylamine derivatization; Michaelis-Menten nonlinear fit; type: biochemical, Lysinibacillus xylanilyticus; conditions: 3 mM NAD+, 5 mM Mg2+, 50 mM CHES pH 9.5, 55 °C, 10 min, 0-5 mM methanol
Text: HPLC of formaldehyde after O-benzylhydroxylamine derivatization; Michaelis-Menten nonlinear fit on Lxmdh (methanol dehydrogenase, Mdh, NAD-dependent)

How did the Km turn out when B1 was run?
The Km was 1311 ± 406 µM.

What about the kcat of the same protein?
The kcat was 0.0333 ± 0.00333 s⁻¹.

How did the Km turn out when B2 was run?
The Km was 372 ± 231 µM.

What about the kcat of the same protein?
The kcat was 0.0283 ± 0.00333 s⁻¹.

Which results are given for B3?
Km: 10 ± 3 µM; kcat: 0.02 ± 0.00167 s⁻¹

B4 was tested. Which Km did it give?
Its Km is 233 ± 107 µM.

And the kcat?
The kcat was 0.0217 ± 0.00167 s⁻¹.

Which Km does the source give for B5 here?
Its Km is 46 ± 72 µM.

What about the kcat of the same protein?
The kcat was 0.0267 ± 0.005 s⁻¹.
